The series addresses GST-ZfQQR (zinc finger ZfQQR) (artificial). Briefly: filter; 25 mM Tris pH 8.0, 100 mM KCl, 20 uM ZnSO4, 2 mM DTT, poly dI-dC, room temperature; protein called zinc finger ZfQQR, GST fusion is the purified form described. As to conditions: tags: N-terminal GST (pGEX-4T-1); label: radioactive. The protocol: To confirm that the consensus sequence obtained after five rounds of SELEX is bound by the zinc finger, a constant KD was measured using the nitrocellulose filter binding method. The assay was performed with radioactively labeled substrates described in the literature (LDNA, LRNA) and a consensus sequence (CDNA, CRNA) see FIG. 16:
Binding reaction contained 2 nM of labeled substrate, 2 μg poly dI-dC as a nonspecific competitor, 25 mM Tris pH 8.0, 100 mM KCl, 20 μM ZnSO₄, 2 mM DTT. The binding reaction was incubated for 30 min at room temperature and then filtered immediately through a nitrocellulose filter and washed with 8 volumes of reaction buffer of 25 mM Tris pH 8.0, 100 mM KCl, 20 μM ZnSO₄, 2 mM DTT. Measurement of the intensity of the signal coming from the retention of radioactively labeled substrate was made on an audioradiogram of the nitrocellulose filter using a Typhoon Trio scanner and ImageQuant TL software.

GST-ZfQQR (zinc finger ZfQQR) (artificial), sequence (chain, as listed by the source): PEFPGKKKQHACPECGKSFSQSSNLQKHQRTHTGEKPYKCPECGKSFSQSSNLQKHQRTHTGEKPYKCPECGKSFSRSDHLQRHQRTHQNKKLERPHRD

B1: SELEX consensus hybrid (CDNA/CRNA) (DNA:RNA)
DNA: TCACTGGTCGGTGGGAATCCTC
RNA: GAGGAUUCCCACCGACCAGUGA
Regarding B1, the Kd turned out to be 155 nM.

B2: literature ZfQQR site hybrid (LDNA/LRNA) (DNA:RNA)
DNA: TCACTGGGGAAGAAGAATCCTC
RNA: GAGGAUUCUUCUUCCCCAGUGA
For the molecule B2, the Kd turned out to be 188 nM.

One may read the Kd as the concentration at which binding is half-saturated.

The record behind these values is patent publication US20140094385, “SEQUENCE-SPECIFIC ENGINEERED RIBONUCLEASE H AND THE METHOD FOR DETERMINING THE SEQUENCE PREFERENCE OF DNA-RNA HYBRID BINDING PROTEINS” (MIEDZYNARODOWY INSTYUT BIOLOGII MOLEKULARNEJ I KOMORKOWEJ, published 2014).
